The target in experiment [1] is T1, full-length human LIP5 M43A (human, UniProt Q9NP79 1-307, M43A).
T1 construct: LIP5, human, full length, point mutant; spacer before the TEV site and His tag, as in m2; Mutant of m2; dimer as said of full-length LIP5 (cited); source: E. coli BL21*(DE3), purified (HisTrap, SEC)
T1 sequence: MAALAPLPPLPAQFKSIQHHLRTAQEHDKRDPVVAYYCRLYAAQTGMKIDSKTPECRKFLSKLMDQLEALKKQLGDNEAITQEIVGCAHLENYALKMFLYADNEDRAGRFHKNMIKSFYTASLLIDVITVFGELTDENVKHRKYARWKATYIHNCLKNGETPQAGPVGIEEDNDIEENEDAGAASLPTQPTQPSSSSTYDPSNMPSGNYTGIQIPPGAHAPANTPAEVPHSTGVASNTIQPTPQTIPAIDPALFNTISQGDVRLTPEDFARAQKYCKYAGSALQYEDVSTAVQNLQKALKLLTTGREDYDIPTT
Nature of the experiment: other fluorescence titration; Alexa 488-labeled, dephosphorylated AQP2 (around 1 uM) in the cuvette, titrated with unlabeled LIP5; total fluorescence; 20 mM Tris-HCl pH 8, 300 mM NaCl, 0.2% OGNG; triplicate titrations. The following applies: both partners purified.

The target in experiment [2] is T2, full-length human lysosomal trafficking regulator-interacting protein 5 (FL-LIP5) (human, UniProt Q9NP79 1-307).
T2 construct: spacer between the last LIP5 residue and the TEV protease site that precedes the His tag; same tag, TEV site and linker as ND-LIP5; No TEV cleavage is described; also called full-length LIP5; wild-type LIP5; source: E. coli BL21*(DE3), purified (HisTrap, SEC)
T2 sequence: T1 sequence with A43M
The experiment is described as above. The following applies: both partners purified.

Substitutions are numbered along the chain they refer to.

The source of these data is paper PMC6862464, “Structural Insights into AQP2 Targeting to Multivesicular Bodies” (International Journal of Molecular Sciences, 2019).

B1: human aquaporin 2 (AQP2), wild-type (natural protein, UniProt P41181 1-271, looked up)
chain: MWELRSIAFSRAVFAEFLATLLFVFFGLGSALNWPQALPSVLQIAMAFGLGIGTLVQALGHISGAHINPAVTVACLVGCHVSVLRAAFYVAAQLLGAVAGAALLHEITPADIRGDLAVNALSNSTTAGQAVTVELFLTLQLVLCIFASTDERRGENPGTPALSIGFSVALGHLLGIHYTGCSMNPARSLAPAVVTGKFDDHWVFWIGPLVGAILGSLLYNYVLFPPAKSLSERLAVLKGLEPDTDWEEREVRRRQSVELHSPQSLPRGTKA
modifications: cysteine residues labeled with C5 maleimide Alexa 488; dephosphorylated with alkaline phosphatase before labeling
notes: concentrations and molar ratios seem to count monomers; His-tag is called uncleavable; also called WT; labeled AQP2; source: Pichia pastoris, purified (HisTrap, SEC) in OGNG; not shown: His-tag, N-terminal, kept
What is called Kd is the equilibrium constant for the complex coming apart. Read a high Kd as a looser complex. As for B1, the Kd was determined as 457 nM in experiment [1] and 237 nM in experiment [2].
